Laboratory results published in publication doi:10.1101/2022.09.15.508077 (bioRxiv, 2022).

Legend:
[1] = molecular target: T1, UFC1 (UniProt Q9Y3C8 1-167); experiment: ITC
T1 sequence: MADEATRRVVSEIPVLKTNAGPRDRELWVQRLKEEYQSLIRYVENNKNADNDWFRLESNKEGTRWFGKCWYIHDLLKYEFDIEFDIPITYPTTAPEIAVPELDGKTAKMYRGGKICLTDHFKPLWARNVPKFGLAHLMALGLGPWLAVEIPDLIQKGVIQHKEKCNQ

[2] = molecular target: T1, UFC1; experiment: NMR titration
[3] = molecular target: T2, UFL1 27-200 (the UFL1 piece of the fusion DDRGK1-UFL1ΔN) (UniProt O94874 27-200); experiment: crystal structure
T2 sequence: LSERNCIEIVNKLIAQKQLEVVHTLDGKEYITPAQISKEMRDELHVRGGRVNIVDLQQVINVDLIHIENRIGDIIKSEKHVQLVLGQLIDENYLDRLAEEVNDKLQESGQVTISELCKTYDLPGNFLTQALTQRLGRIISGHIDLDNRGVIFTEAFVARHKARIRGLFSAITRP

B1: DDRGK1_(207-314)-UFL1_(1-200) fusion protein (other)
chain: MTEEQSQSFLTEFINYIKQSKVVLLEDLASQVGLRTQDTINRIQDLLAEGTITGVIDDRGKFIYITPEELAAVANFIRQRGRVSIAELAQASNSLIAWGRESPAQAPAMADAWEEIRRLAADFQRAQFAEATQRLSERNCIEIVNKLIAQKQLEVVHTLDGKEYITPAQISKEMRDELHVRGGRVNIVDLQQVINVDLIHIENRIGDIIKSEKHVQLVLGQLIDENYLDRLAEEVNDKLQESGQVTISELCKTYDLPGNFLTQALTQRLGRIISGHIDLDNRGVIFTEAFVARHKARIRGLFSAITRP
B1 showed a Kd [1] of 2.4 µM.

B2: UBA5 C-terminus (UBA5 347-404) (domain or fragment)
chain: SEVSEEELKNFSGPVPDLPEGITVAYTIPKKQEDSVTELTVEDSGESLEDLMAKMKNM
B2: binds [2].

B3: DDRGK1 207-305 (the DDRGK1 piece of the fusion DDRGK1-UFL1ΔN) (domain or fragment)
chain: MTEEQSQSFLTEFINYIKQSKVVLLEDLASQVGLRTQDTINRIQDLLAEGTITGVIDDRGKFIYITPEELAAVANFIRQRGRVSIAELAQASNSLIAWG
B3: binds [3].
